Experimental findings from publication PMC3563690 (The Journal of Cell Biology, 2013) are described below.

Common to all, as to experiment: immunostaining of cells or tissue
Assay [1] has as its target T1, HA-tagged mouse MDGA2 (mouse).
T1 sequence (P60755 whole entry, looked up): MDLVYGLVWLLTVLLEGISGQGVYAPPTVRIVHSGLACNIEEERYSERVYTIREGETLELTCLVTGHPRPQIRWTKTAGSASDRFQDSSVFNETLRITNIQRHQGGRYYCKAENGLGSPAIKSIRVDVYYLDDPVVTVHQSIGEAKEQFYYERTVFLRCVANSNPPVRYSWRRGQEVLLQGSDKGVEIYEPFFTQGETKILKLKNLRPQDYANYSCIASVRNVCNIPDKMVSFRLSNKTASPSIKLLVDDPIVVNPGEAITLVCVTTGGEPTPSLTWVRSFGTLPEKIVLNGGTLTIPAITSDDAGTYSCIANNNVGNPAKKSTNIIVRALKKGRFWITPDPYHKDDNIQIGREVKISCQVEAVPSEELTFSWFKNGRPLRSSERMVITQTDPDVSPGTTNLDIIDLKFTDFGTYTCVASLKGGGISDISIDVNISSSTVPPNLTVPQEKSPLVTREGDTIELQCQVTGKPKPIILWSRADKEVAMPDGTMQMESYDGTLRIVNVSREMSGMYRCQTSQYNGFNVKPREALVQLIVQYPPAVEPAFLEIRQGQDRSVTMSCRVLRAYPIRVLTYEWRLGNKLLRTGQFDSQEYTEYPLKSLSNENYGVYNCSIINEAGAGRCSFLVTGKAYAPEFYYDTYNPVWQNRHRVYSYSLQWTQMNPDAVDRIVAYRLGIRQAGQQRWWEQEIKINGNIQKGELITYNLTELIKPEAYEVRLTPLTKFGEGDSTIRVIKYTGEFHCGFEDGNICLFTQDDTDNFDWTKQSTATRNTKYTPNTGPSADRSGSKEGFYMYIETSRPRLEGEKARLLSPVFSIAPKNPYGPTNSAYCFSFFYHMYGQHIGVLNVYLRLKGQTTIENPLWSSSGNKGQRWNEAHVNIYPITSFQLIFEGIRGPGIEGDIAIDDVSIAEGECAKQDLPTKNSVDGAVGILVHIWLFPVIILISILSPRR

In assay [2] the target is HA-neurexin1β(−S4) (mouse | rat).
The target in assay [3] is T2, extracellular HA-tagged rat MDGA1 (rat, UniProt P85171 19-933).
T2 sequence (looked up): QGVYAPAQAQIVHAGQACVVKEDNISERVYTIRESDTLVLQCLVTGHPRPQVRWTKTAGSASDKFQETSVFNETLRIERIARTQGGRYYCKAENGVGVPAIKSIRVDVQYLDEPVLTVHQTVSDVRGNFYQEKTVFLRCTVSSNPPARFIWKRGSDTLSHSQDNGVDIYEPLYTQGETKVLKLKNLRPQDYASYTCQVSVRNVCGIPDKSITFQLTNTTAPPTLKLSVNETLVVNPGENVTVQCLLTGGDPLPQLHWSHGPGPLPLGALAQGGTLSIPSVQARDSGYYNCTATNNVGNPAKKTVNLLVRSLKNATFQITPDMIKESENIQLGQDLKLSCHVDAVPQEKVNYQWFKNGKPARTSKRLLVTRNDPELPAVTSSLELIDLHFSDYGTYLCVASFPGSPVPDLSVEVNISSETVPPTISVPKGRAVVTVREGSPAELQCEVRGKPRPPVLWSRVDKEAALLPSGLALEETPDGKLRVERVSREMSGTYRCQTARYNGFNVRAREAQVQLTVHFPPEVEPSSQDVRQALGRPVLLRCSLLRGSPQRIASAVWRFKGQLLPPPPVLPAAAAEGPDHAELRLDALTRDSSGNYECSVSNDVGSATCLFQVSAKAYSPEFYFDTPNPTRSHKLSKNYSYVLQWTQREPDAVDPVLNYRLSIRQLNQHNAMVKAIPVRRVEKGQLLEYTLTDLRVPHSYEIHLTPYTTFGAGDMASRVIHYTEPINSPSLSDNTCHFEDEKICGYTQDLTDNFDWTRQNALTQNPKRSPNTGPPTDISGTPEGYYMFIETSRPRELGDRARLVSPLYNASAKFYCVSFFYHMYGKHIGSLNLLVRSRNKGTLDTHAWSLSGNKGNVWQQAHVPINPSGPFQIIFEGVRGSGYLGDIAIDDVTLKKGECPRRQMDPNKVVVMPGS

In general, Kd refers to the concentration at which binding is half-saturated. The low end stands for higher affinity, the high end for lower affinity. For “soluble neuroligin-2–Fc fusion protein (from UniProt Q69ZK9 15-676)”, the values for the Kd in assay [1] and in assay [2] were 45.9 nM and 8.4 nM, respectively.

B1: soluble neuroligin-2–Fc fusion protein (Fc fusion, UniProt Q69ZK9 15-676, looked up)
chain: QRGGGGPGGGAPGGPGLGLGSLGEERFPVVNTAYGRVRGVRRELNNEILGPVVQFLGVPYATPPLGARRFQPPEAPASWPGVRNATTLPPACPQNLHGALPAIMLPVWFTDNLEAAATYVQNQSEDCLYLNLYVPTEDGPLTKKRDEATLNPPDTDIRDSGKKPVMLFLHGGSYMEGTGNMFDGSVLAAYGNVIVVTLNYRLGVLGFLSTGDQAAKGNYGLLDQIQALRWLSENIAHFGGDPERITIFGSGAGASCVNLLILSHHSEGLFQKAIAQSGTAISSWSVNYQPLKYTRLLAAKVGCDREDSTEAVECLRRKSSRELVDQDVQPARYHIAFGPVVDGDVVPDDPEILMQQGEFLNYDMLIGVNQGEGLKFVEDSAESEDGVSASAFDFTVSNFVDNLYGYPEGKDVLRETIKFMYTDWADRDNGEMRRKTLLALFTDHQWVAPAVATAKLHADYQSPVYFYTFYHHCQAEGRPEWADAAHGDELPYVFGVPMVGATDLFPCNFSKNDVMLSAVVMTYWTNFAKTGDPNQPVPQDTKFIHTKPNRFEEVVWSKFNSKEKQYLHIGLKPRVRDNYRANKVAFWLELVPHLHNLHTELFTTTTRLPPYATRWPPRTPGPGTSGTRRPPPPATLPPESDIDLGPRAYDRFPGDSRDYSTE
Consider B1, for which the affinity in assay [3], expressed as Kd, was 7.3 nM.
